# Measurements taken from paper PMC9769108, “Tuning dynamic DNA- and peptide-driven self-assembly in DNA–peptide conjugates†” (Chemical Science, 2022).
# Where no end group is shown, it is not given here.
# B1: ILVAGK, β-turn-forming hexapeptide (parent peptide) (peptide)
# peptide: ILVAGK
# modifications: not fully specified (N-terminus, C-terminus)
# notes: The form used for conjugation is N3-ILVAGK-NH2; also called pure ILVAGK
# Target: the molecule itself
# Assay: dynamic light scattering + atomic force microscopy; TAMg buffer, room temperature, aged 0 to 28 days; total peptide 10 μM; CD alongside
protein,measurement,value
B1,binding result,binds
